T1: Repulsive guidance molecule A (Mus musculus (Mouse), UniProt Q6PCX7 48-427, GPI anchor at the C-terminus after removal of 428-454. Autocatalytic cleavage between 169 and 170 may split the protein into two disulfide-linked fragments. The letters carry neither.)
T1 sequence: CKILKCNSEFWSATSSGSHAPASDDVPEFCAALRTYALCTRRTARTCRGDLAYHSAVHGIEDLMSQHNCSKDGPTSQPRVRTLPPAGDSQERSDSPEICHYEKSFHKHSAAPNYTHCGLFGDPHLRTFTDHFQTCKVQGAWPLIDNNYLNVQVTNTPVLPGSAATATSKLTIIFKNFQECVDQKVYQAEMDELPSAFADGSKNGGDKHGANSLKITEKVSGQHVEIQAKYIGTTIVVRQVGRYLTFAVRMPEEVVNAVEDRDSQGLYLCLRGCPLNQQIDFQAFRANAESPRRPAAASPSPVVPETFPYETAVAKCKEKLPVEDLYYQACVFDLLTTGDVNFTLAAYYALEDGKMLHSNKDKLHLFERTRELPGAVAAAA

B1: RGMA (AE12-1) (antibody, V domains shown)
VH: EVQLVQSGAEVKKPGASVKVSCKASGYTFTSHGISWVRQAPGQGLDWMGWISPYSGNTNYAQKLQGRVTMTTDTSTSTAYMELSSLRSEDTAVYYCARVGSGPYYYMDVWGQGTLVTVSS
VL: QSALTQPRSVSGSPGQSVTISCTGTSSSVGDSIYVSWYQQHPGKAPKLMLYDVTKRPSGVPDRFSGSKSGNTASLTISGLQAEDEADYYCCSYAGTDTLFGGGTKVTVLG
B2: RGMA(AE12-1)-LS-TfR(AB403) (bispecific antibody)
VH: EVQLVQSGAEVKKPGASVKVSCKASGYTFTSHGISWVRQAPGQGLDWMGWISPYSGNTNYAQKLQGRVTMTTDTSTSTAYMELSSLRSEDTAVYYCARVGSGPYYYMDVWGQGTLVTVSSASTKGPSVFPLAPEVQLVESGGGLVQPGGSLRLSCAASGFTFSNYGMHWIRQAPGKGLEWIAMIYYDSSKMNYADTVKGRFTISRDNAKNSLYLQMNSLRAEDTAVYYCAVPTSHYVVDVWGQGTTVTVSS
VL: QSALTQPRSVSGSPGQSVTISCTGTSSSVGDSIYVSWYQQHPGKAPKLMLYDVTKRPSGVPDRFSGSKSGNTASLTISGLQAEDEADYYCCSYAGTDTLFGGGTKVTVLGQPKAAPEIVMTQSPATLSVSPGERATLSCQASQDIGNWLAWYQQKPGQSPRLLIYGATSLADGVPARFSGSRSGTEFTLTISSLQSEDFAVYYCLQAYNTPWTFGGGTKVEIK
B3: RGMA(AE12-1)-SS-TfR(AB403) (bispecific antibody)
VH: EVQLVQSGAEVKKPGASVKVSCKASGYTFTSHGISWVRQAPGQGLDWMGWISPYSGNTNYAQKLQGRVTMTTDTSTSTAYMELSSLRSEDTAVYYCARVGSGPYYYMDVWGQGTLVTVSSASTKGPEVQLVESGGGLVQPGGSLRLSCAASGFTFSNYGMHWIRQAPGKGLEWIAMIYYDSSKMNYADTVKGRFTISRDNAKNSLYLQMNSLRAEDTAVYYCAVPTSHYVVDVWGQGTTVTVSS
VL: QSALTQPRSVSGSPGQSVTISCTGTSSSVGDSIYVSWYQQHPGKAPKLMLYDVTKRPSGVPDRFSGSKSGNTASLTISGLQAEDEADYYCCSYAGTDTLFGGGTKVTVLGQPKAAPEIVMTQSPATLSVSPGERATLSCQASQDIGNWLAWYQQKPGQSPRLLIYGATSLADGVPARFSGSRSGTEFTLTISSLQSEDFAVYYCLQAYNTPWTFGGGTKVEIK
B4: TfR(AB405)-SL-RGMA(AE12-1) (bispecific antibody)
VH: QVQLVQSGAEVKKPGASVKVSCKASGFTFSNYGMHWIRQAPGQGLEWIAMIYYDSSKMNYADTVKGRFTITRDNSTNTLYMELSSLRSEDTAVYYCAVPTSHYVVDVWGQGTTVTVSSASTKGPEVQLVQSGAEVKKPGASVKVSCKASGYTFTSHGISWVRQAPGQGLDWMGWISPYSGNTNYAQKLQGRVTMTTDTSTSTAYMELSSLRSEDTAVYYCARVGSGPYYYMDVWGQGTLVTVSS
VL: EIVMTQSPATLSVSPGERATLSCQASQDIGNWLAWYQQKPGQSPRLLIYGATSLADGVPARFSGSRSGTEFTLTISSLQSEDFAVYYCLQAYNTPWTFGGGTKVEIKRTVAAPSVFIFPPQSALTQPRSVSGSPGQSVTISCTGTSSSVGDSIYVSWYQQHPGKAPKLMLYDVTKRPSGVPDRFSGSKSGNTASLTISGLQAEDEADYYCCSYAGTDTLFGGGTKVTVL
B5: RGMA(AE12-1)-GS-TfR(AB403) DVD-Ig protein (bispecific antibody, human IgG1, not shown: a dimerising Fc or GST)
heavy: EVQLVQSGAEVKKPGASVKVSCKASGYTFTSHGISWVRQAPGQGLDWMGWISPYSGNTNYAQKLQGRVTMTTDTSTSTAYMELSSLRSEDTAVYYCARVGSGPYYYMDVWGQGTLVTVSSGGGGSGGGGSEVQLVESGGGLVQPGGSLRLSCAASGFTFSNYGMHWIRQAPGKGLEWIAMIYYDSSKMNYADTVKGRFTISRDNAKNSLYLQMNSLRAEDTAVYYCAVPTSHYVVDVWGQGTTVTVSS
light: QSALTQPRSVSGSPGQSVTISCTGTSSSVGDSIYVSWYQQHPGKAPKLMLYDVTKRPSGVPDRFSGSKSGNTASLTISGLQAEDEADYYCCSYAGTDTLFGGGTKVTVLGGGSGGGGSGEIVMTQSPATLSVSPGERATLSCQASQDIGNWLAWYQQKPGQSPRLLIYGATSLADGVPARFSGSRSGTEFTLTISSLQSEDFAVYYCLQAYNTPWTFGGGTKVEIKR
B6: RGMA(AE12-1)-SS-TfR(AB402) (bispecific antibody, part only; not given: Inner anti-TfR domains, linkers, constant regions, not shown: a dimerising Fc or GST)
heavy, part: EVQLVQSGAEVKKPGASVKVSCKASGYTFTSHGISWVRQAPGQGLDWMGWISPYSGNTNYAQKLQGRVTMTTDTSTSTAYMELSSLRSEDTAVYYCARVGSGPYYYMDVWGQGTLVTVSS
light, part: QSALTQPRSVSGSPGQSVTISCTGTSSSVGDSIYVSWYQQHPGKAPKLMLYDVTKRPSGVPDRFSGSKSGNTASLTISGLQAEDEADYYCCSYAGTDTLFGGGTKVTVLG
B7: TfR(AB405)-LL-RGMA(AE12-1) (bispecific antibody, part only; not given: Outer anti-TfR domains, linkers, constant regions, not shown: a dimerising Fc or GST)
heavy, part: EVQLVQSGAEVKKPGASVKVSCKASGYTFTSHGISWVRQAPGQGLDWMGWISPYSGNTNYAQKLQGRVTMTTDTSTSTAYMELSSLRSEDTAVYYCARVGSGPYYYMDVWGQGTLVTVSS
light, part: QSALTQPRSVSGSPGQSVTISCTGTSSSVGDSIYVSWYQQHPGKAPKLMLYDVTKRPSGVPDRFSGSKSGNTASLTISGLQAEDEADYYCCSYAGTDTLFGGGTKVTVLG
B8: RGMA(AE12-1)-GS-TfR(AB402) (bispecific antibody, part only; not given: anti-TfR domains, constants, not shown: a dimerising Fc or GST)
heavy, part: EVQLVQSGAEVKKPGASVKVSCKASGYTFTSHGISWVRQAPGQGLDWMGWISPYSGNTNYAQKLQGRVTMTTDTSTSTAYMELSSLRSEDTAVYYCARVGSGPYYYMDVWGQGTLVTVSSGGGGSGGGGS
light, part: QSALTQPRSVSGSPGQSVTISCTGTSSSVGDSIYVSWYQQHPGKAPKLMLYDVTKRPSGVPDRFSGSKSGNTASLTISGLQAEDEADYYCCSYAGTDTLFGGGTKVTVLGGGSGGGGSG
B9: TfR(AB405)-GS-RGMA(AE12-1) (bispecific antibody, part only; not given: anti-TfR domains, constants, not shown: a dimerising Fc or GST)
heavy, part: GGGGSGGGGSEVQLVQSGAEVKKPGASVKVSCKASGYTFTSHGISWVRQAPGQGLDWMGWISPYSGNTNYAQKLQGRVTMTTDTSTSTAYMELSSLRSEDTAVYYCARVGSGPYYYMDVWGQGTLVTVSS
light, part: GGSGGGGSGQSALTQPRSVSGSPGQSVTISCTGTSSSVGDSIYVSWYQQHPGKAPKLMLYDVTKRPSGVPDRFSGSKSGNTASLTISGLQAEDEADYYCCSYAGTDTLFGGGTKVTVLG

For one assay, the target named is T1, Repulsive guidance molecule A. Nature of the assay: cell-based or functional assay.
As to B1, the “BMP Assay IC50” value is 0.25 nM.
Same read-out and setting: in the case of B2 it was below 0.025 nM; in that of B3, 1.18 nM.
For the molecule B4, the “BMP Assay IC50” value was 0.73 nM.
On the same count and under the same terms, in the case of B5 it was below 0.025 nM.

A further assay has as its target Repulsive guidance molecule A (Mus musculus (Mouse)) (UniProt Q6PCX7). Nature of the assay: cell-based or functional assay.
For B6, the BMP Assay IC50 came out at 0.436 nM.
On the same count and under the same terms, next, B7: 0.701 nM; B8: 0.014 nM; B9: 3.12 nM.
